Values quoted from earlier work in PMC2790341.

Key:
NRP1 (Homo sapiens) = NRP1 (Homo sapiens) (UniProt O14786)
VEGFR1 (Homo sapiens) = VEGFR1 (Homo sapiens) (UniProt P17948)
VEGFR2 (Homo sapiens) = VEGFR2 (Homo sapiens) (UniProt P35968)
Sequence of UniProt P35968 (P35968 20-1356): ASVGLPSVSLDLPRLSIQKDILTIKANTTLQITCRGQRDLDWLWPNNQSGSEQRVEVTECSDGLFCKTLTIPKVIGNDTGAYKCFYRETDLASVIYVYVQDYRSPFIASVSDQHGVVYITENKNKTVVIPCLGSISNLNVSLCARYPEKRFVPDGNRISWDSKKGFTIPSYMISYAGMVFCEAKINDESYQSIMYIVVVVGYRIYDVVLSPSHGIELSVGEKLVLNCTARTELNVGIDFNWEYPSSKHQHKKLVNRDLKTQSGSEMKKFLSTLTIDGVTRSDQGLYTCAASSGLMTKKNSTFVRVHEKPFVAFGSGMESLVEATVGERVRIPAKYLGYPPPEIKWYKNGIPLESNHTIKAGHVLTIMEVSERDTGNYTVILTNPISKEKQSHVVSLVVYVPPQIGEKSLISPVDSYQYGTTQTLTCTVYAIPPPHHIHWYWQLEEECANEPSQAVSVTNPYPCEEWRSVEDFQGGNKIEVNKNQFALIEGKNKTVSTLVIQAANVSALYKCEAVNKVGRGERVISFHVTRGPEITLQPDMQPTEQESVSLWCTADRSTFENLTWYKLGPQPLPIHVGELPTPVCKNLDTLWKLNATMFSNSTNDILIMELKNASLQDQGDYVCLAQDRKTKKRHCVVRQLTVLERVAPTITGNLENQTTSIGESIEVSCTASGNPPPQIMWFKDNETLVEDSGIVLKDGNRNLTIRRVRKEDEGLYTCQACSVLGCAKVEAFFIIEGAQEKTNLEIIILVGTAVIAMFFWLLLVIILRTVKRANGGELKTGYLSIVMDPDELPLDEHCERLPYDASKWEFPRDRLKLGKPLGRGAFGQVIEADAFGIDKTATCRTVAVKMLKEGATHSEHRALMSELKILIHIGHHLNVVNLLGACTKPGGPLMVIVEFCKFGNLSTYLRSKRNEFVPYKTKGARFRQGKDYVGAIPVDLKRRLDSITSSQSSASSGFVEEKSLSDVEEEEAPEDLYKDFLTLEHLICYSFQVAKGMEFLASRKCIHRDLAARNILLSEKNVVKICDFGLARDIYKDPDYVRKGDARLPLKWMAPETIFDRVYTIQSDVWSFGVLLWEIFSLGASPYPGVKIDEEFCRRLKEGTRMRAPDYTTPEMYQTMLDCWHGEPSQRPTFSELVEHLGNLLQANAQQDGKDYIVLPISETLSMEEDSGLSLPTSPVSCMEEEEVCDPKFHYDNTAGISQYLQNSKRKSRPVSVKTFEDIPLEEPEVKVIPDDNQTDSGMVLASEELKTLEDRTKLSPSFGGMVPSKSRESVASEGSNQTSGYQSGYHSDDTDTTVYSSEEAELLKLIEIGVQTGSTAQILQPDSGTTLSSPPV

Sequence of UniProt O14786 (O14786 22-923): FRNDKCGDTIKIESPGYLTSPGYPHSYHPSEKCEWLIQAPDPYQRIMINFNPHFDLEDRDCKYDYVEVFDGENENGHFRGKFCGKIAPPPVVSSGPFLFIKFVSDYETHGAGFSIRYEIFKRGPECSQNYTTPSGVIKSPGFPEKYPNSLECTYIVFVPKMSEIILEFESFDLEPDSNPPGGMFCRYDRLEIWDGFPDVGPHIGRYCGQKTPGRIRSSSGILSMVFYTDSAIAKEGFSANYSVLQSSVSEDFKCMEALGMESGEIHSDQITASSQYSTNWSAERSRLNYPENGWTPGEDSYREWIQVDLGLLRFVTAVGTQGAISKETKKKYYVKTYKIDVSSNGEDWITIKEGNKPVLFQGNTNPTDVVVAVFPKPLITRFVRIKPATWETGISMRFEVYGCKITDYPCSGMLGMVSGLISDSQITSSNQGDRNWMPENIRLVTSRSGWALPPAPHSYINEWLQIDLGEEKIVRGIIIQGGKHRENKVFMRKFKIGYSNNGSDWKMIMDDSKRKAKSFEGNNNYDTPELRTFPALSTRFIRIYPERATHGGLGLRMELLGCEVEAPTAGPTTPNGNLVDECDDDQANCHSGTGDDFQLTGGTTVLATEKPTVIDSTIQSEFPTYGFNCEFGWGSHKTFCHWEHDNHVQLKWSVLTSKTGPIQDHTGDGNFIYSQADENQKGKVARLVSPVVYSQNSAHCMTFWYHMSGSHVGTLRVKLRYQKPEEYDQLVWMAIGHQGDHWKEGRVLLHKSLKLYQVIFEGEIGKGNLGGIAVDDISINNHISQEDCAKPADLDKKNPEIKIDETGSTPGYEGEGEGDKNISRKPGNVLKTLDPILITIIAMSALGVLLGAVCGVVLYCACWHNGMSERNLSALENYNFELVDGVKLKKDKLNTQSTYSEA
Sequence of UniProt P17948 (P17948 27-1338): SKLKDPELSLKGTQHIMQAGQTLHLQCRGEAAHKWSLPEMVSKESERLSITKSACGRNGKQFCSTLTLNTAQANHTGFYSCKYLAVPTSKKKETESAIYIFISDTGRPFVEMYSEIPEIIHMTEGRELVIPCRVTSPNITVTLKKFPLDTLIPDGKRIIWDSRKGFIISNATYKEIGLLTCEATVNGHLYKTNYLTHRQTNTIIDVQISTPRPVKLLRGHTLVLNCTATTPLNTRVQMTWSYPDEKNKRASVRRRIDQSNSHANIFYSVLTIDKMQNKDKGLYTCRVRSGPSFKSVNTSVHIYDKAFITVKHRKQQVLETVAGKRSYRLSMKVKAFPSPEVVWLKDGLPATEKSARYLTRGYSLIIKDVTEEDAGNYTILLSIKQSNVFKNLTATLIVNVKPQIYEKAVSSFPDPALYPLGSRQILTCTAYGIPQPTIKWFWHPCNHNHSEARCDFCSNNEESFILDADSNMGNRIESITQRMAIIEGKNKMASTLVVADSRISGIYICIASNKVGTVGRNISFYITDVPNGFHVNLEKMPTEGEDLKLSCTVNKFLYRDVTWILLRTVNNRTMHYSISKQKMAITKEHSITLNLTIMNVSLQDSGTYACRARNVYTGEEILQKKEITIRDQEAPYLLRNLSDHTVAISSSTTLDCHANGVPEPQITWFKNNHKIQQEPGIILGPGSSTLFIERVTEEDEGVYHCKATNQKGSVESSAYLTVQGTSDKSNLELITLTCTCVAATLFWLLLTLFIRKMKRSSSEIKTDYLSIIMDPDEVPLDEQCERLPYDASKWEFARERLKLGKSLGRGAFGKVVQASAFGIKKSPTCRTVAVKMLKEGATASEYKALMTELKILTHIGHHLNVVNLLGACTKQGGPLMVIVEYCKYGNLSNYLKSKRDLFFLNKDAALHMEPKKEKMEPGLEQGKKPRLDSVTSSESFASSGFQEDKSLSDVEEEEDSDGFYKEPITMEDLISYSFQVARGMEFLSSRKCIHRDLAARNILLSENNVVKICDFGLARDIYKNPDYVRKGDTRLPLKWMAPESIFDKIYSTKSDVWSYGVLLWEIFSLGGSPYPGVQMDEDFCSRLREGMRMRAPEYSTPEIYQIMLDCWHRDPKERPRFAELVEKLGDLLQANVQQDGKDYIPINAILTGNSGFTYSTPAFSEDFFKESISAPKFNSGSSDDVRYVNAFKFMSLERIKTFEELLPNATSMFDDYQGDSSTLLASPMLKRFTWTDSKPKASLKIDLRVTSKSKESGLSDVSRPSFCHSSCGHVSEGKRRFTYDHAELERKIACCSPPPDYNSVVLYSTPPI

Row | Substance | Kd (NRP1 (Homo sapiens)) [nM] | Kd (VEGFR1 (Homo sapiens)) [nM] | Kd (VEGFR2 (Homo sapiens)) [nM]
1 | VEGF165 (from UniProt P15692) | 0.312 | – | –
2 | VEGF (from UniProt P15692) | – | 0.033 | 0.1
